For assay [1], the target named is T1, 人附睾蛋白(HE4) (human, UniProt Q14508 31-124).
T1 construct: also called HE4抗原; 抗原
T1 sequence (looked up): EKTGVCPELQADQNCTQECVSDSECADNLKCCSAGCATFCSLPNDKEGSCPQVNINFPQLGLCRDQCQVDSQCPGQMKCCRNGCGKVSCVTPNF
Kind of assay: additive ELISA on HE4, 1G8 alone.

Assay [2] has as its target T1, 人附睾蛋白(HE4). The assay is described as follows: SPR, Biacore T100, 1:1 binding fit.
In assay [3] the target is T1, 人附睾蛋白(HE4). The assay is described as follows: additive ELISA on HE4, 1D9 alone. (In general: ELISA stands for enzyme-linked immunosorbent assay.)

Residue numbers refer to the chain shown, from its start.

Data on three molecules can be found in patent CN113480658A (SHENZHEN INNOVA NANOBODI CO LTD, dated 2021).

B1: 纳米抗体1G8 (VHH)
VHH: QVQLQESGGGLAQTGGSLRLSCVASGRTLDRYAIGWFRQAPGKEREFVAAISMSGTMTDYTDSVKGRFTISRDNAKNTVYLQMNSLKPDDTAVYCCAAGGRRGWGRALFAYDYWGQGTQVTVSS
For B1, the ELISA reading (2nd抗体) in assay [1] worked out at 0.481.

B2: 抗HE4二价纳米抗体1D9-LHC (VHH)
VHH: B1 VHH with A12V, T14P, V23A, R27P, T28R, L29F, D30S, R31S, A33G, I34M
B2: the Kd in assay [2] was 6.9 pM.

B3: 纳米抗体1D9 (抗HE4单价纳米抗体) (VHH)
VHH: B1 VHH with A12V, T14P, V23A, R27P, T28R, L29F, D30S, R31S, A33G, I34M
notes: CDR1 26-33, CDR2 51-58, CDR3 97-113); Expressed in E. coli from pMES4 and purified
Turning to B3, the dissociation constant (Kd) in assay [2] stood at 11.9 pM. The “ELISA reading (1st抗体)” value in assay [3] came out at 0.286.

As usually defined, the Kd is the concentration at which binding is half-saturated. The low end stands for a tighter complex, the high end for a looser complex.
